Assay [1] concerns the target T1, Full-length human CRM1 (HsCRM1) (human, UniProt O14980 1-1071). Description: MST; direct titration, left panel.
The target in assay [2] is T1, Full-length human CRM1 (HsCRM1). Description: MST; direct titration, right panel.
The target is the same in assay [3]. Description: MST; direct titration, middle panel.
Assay [4] has the same target. Description: MST; competition with FITC-PKI^NES.

Ends that are not written are not given here. * marks the point of attachment. FITC = O=C1OC2(c3ccc(O)cc3Oc3cc(O)ccc32)c2ccc(NC(=S)*)cc21

T1 sequence (O14980 whole entry): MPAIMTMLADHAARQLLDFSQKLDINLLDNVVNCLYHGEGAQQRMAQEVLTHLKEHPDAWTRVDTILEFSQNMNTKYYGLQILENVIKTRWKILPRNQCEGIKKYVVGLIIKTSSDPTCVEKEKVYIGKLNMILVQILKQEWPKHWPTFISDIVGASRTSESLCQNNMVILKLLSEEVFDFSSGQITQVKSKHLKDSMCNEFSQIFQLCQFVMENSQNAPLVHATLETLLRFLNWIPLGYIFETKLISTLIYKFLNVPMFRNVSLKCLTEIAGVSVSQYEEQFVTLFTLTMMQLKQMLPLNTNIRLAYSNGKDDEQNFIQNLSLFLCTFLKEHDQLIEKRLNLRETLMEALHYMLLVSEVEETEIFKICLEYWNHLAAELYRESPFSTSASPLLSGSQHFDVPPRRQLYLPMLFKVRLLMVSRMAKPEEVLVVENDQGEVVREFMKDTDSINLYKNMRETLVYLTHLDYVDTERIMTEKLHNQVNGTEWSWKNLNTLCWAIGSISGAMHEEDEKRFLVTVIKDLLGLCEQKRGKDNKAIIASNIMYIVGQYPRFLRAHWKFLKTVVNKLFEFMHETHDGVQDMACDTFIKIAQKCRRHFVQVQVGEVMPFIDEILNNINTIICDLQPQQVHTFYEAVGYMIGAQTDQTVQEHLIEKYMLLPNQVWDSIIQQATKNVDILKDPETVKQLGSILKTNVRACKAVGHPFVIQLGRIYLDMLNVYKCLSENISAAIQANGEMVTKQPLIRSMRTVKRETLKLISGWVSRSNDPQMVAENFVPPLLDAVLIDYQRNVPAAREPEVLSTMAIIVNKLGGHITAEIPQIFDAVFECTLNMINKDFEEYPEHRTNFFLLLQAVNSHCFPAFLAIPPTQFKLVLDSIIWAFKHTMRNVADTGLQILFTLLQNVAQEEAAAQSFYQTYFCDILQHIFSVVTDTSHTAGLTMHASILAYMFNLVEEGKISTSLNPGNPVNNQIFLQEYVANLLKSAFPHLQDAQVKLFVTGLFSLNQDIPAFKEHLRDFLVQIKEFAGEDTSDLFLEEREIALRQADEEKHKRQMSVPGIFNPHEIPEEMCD

B1: FITC-PKI^NES peptide (FITC-SGNSNELALKLAGLDINKT) (peptide)
peptide: {FITC}-SGNSNELALKLAGLDINKT
As to B1, the dissociation constant (Kd) in assay [1] is 37 nM; in assay [2], 44 nM; in assay [3], 30 nM.

B2: MBP-PKI^NES (peptide)
chain: SNELALKLAGLDI
For B2, in assay [4], the dissociation constant (Kd) was determined as 36 nM.

B3: MBP-SNUPN^NES (peptide)
chain: MEELSQALASSFSVSQ
In assay [4], B3 registered a Kd of 12000 nM.

(Values after publication PMC4596688 (2015).)
